{
  "source": "patent US20090017041A1",
  "key": {"[1]": {"target": "high molecular weight (HMW) proto-fibrillar (PF) oligomer enriched preparation of the Aβ1-42 peptide (Example 15) (human)", "sequence (peptide, as listed by the source)": "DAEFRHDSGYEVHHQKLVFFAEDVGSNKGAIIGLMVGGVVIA", "assay": "ELISA, fraction coated at 2 µM; antibody 0.0156 µg/ml"}, "[2]": {"target": "low molecular weight (LMW) monomeric preparation of the Aβ1-42 peptide (Example 15) (human)", "sequence (peptide, as listed by the source)": "as above", "assay": "ELISA, fraction coated at 2 µM; antibody 0.0156 µg/ml"}, "[3]": {"target": "monomer-enriched preparation of the Aβ1-42 peptide (Example 16)", "sequence (peptide, as listed by the source)": "as above", "assay": "ELISA, fraction coated at 2.2 µM; antibody dilution 1:1 (start 0.5 µg/ml)"}, "[4]": {"target": "oligomer-enriched preparation of the Aβ1-42 peptide (Example 16)", "sequence (peptide, as listed by the source)": "as above", "assay": "ELISA, fraction coated at 2.2 µM; antibody dilution 1:1 (start 0.5 µg/ml)"}, "[5]": {"target": "monomer-enriched preparation of the Aβ1-42 peptide (Example 16)", "assay": "ELISA, fraction coated at 2.2 µM; antibody dilution 1:4 (start 0.5 µg/ml)"}, "[6]": {"target": "oligomer-enriched preparation of the Aβ1-42 peptide (Example 16)", "assay": "ELISA, fraction coated at 2.2 µM; antibody dilution 1:4 (start 0.5 µg/ml)"}, "[7]": {"target": "monomer-enriched preparation of the Aβ1-42 peptide (Example 16)", "assay": "ELISA, fraction coated at 2.2 µM; antibody dilution 1:32 (start 0.5 µg/ml)"}, "[8]": {"target": "oligomer-enriched preparation of the Aβ1-42 peptide (Example 16)", "assay": "ELISA, fraction coated at 2.2 µM; antibody dilution 1:32 (start 0.5 µg/ml)"}, "[9]": {"target": "monomer-enriched preparation of the Aβ1-42 peptide (Example 16)", "assay": "ELISA, fraction coated at 2.2 µM; antibody dilution 1:128 (start 0.5 µg/ml)"}, "[10]": {"target": "oligomer-enriched preparation of the Aβ1-42 peptide (Example 16)", "assay": "ELISA, fraction coated at 2.2 µM; antibody dilution 1:128 (start 0.5 µg/ml)"}, "[11]": {"target": "monomer-enriched preparation of the Aβ1-42 peptide (Example 16)", "assay": "ELISA, fraction coated at 2.2 µM; assay 1; antibody dilution 1:1 (start 0.5 µg/ml)"}, "[12]": {"target": "oligomer-enriched preparation of the Aβ1-42 peptide (Example 16)", "assay": "ELISA, fraction coated at 2.2 µM; assay 1; antibody dilution 1:1 (start 0.5 µg/ml)"}, "[13]": {"target": "monomer-enriched preparation of the Aβ1-42 peptide (Example 16)", "assay": "ELISA, fraction coated at 2.2 µM; assay 2; antibody dilution 1:4 (start 0.5 µg/ml)"}, "[14]": {"target": "oligomer-enriched preparation of the Aβ1-42 peptide (Example 16)", "assay": "ELISA, fraction coated at 2.2 µM; assay 2; antibody dilution 1:4 (start 0.5 µg/ml)"}, "[15]": {"target": "oligomer-enriched preparation of the Aβ1-42 peptide (Example 16)", "assay": "ELISA, fraction coated at 2.2 µM; assay 2; antibody dilution 1:8 (start 0.5 µg/ml)"}, "[16]": {"target": "monomer-enriched preparation of the Aβ1-42 peptide (Example 16)", "assay": "ELISA, fraction coated at 2.2 µM; assay 3; antibody dilution 1:1 (start 0.5 µg/ml)"}, "[17]": {"target": "oligomer-enriched preparation of the Aβ1-42 peptide (Example 16)", "assay": "ELISA, fraction coated at 2.2 µM; assay 3; antibody dilution 1:1 (start 0.5 µg/ml)"}, "[18]": {"target": "oligomer-enriched preparation of the Aβ1-42 peptide (Example 16)", "assay": "ELISA, fraction coated at 2.2 µM; assay 3; antibody dilution 1:2 (start 0.5 µg/ml)"}, "[19]": {"target": "monomer-enriched preparation of the Aβ1-42 peptide (Example 16)", "assay": "ELISA, fraction coated at 2.2 µM; assay 3; antibody dilution 1:4 (start 0.5 µg/ml)"}, "[20]": {"target": "oligomer-enriched preparation of the Aβ1-42 peptide (Example 16)", "assay": "ELISA, fraction coated at 2.2 µM; assay 3; antibody dilution 1:4 (start 0.5 µg/ml)"}, "[21]": {"target": "oligomer-enriched preparation of the Aβ1-42 peptide (Example 16)", "assay": "ELISA, fraction coated at 2.2 µM; assay 3; antibody dilution 1:8 (start 0.5 µg/ml)"}, "[22]": {"target": "monomer-enriched preparation of the Aβ1-42 peptide (Example 16)", "assay": "ELISA, fraction coated at 2.2 µM; assay 1; antibody dilution 1:16 (start 0.5 µg/ml)"}, "[23]": {"target": "oligomer-enriched preparation of the Aβ1-42 peptide (Example 16)", "assay": "ELISA, fraction coated at 2.2 µM; assay 1; antibody dilution 1:16 (start 0.5 µg/ml)"}, "[24]": {"target": "monomer-enriched preparation of the Aβ1-42 peptide (Example 16)", "assay": "ELISA, fraction coated at 2.2 µM; assay 1; antibody dilution 1:32 (start 0.5 µg/ml)"}, "[25]": {"target": "oligomer-enriched preparation of the Aβ1-42 peptide (Example 16)", "assay": "ELISA, fraction coated at 2.2 µM; assay 1; antibody dilution 1:32 (start 0.5 µg/ml)"}, "[26]": {"target": "monomer-enriched preparation of the Aβ1-42 peptide (Example 16)", "assay": "ELISA, fraction coated at 2.2 µM; assay 2; antibody dilution 1:64 (start 0.5 µg/ml)"}, "[27]": {"target": "oligomer-enriched preparation of the Aβ1-42 peptide (Example 16)", "assay": "ELISA, fraction coated at 2.2 µM; assay 2; antibody dilution 1:64 (start 0.5 µg/ml)"}, "[28]": {"target": "monomer-enriched preparation of the Aβ1-42 peptide (Example 16)", "assay": "ELISA, fraction coated at 2.2 µM; assay 3; antibody dilution 1:16 (start 0.5 µg/ml)"}, "[29]": {"target": "oligomer-enriched preparation of the Aβ1-42 peptide (Example 16)", "assay": "ELISA, fraction coated at 2.2 µM; assay 3; antibody dilution 1:16 (start 0.5 µg/ml)"}, "[30]": {"target": "monomer-enriched preparation of the Aβ1-42 peptide (Example 16)", "assay": "ELISA, fraction coated at 2.2 µM; assay 3; antibody dilution 1:64 (start 0.5 µg/ml)"}, "[31]": {"target": "oligomer-enriched preparation of the Aβ1-42 peptide (Example 16)", "assay": "ELISA, fraction coated at 2.2 µM; assay 3; antibody dilution 1:64 (start 0.5 µg/ml)"}, "[32]": {"target": "monomer-enriched preparation of the Aβ1-42 peptide (Example 16)", "assay": "ELISA, fraction coated at 2.2 µM; assay 3; antibody dilution 1:128 (start 0.5 µg/ml)"}, "[33]": {"target": "oligomer-enriched preparation of the Aβ1-42 peptide (Example 16)", "assay": "ELISA, fraction coated at 2.2 µM; assay 3; antibody dilution 1:128 (start 0.5 µg/ml)"}},
  "data": [
    {"substance": "6E10 control antibody", "values": [
      {"measurement": "O.D. (405 nm)", "setting": "[1]", "result": 0.201, "unit": "O.D."},
      {"measurement": "O.D. (405 nm)", "setting": "[2]", "result": 0.207, "unit": "O.D."},
      {"measurement": "O.D. (405 nm), mean of 3 assays", "setting": "[3]", "result": 3.83, "unit": "O.D."},
      {"measurement": "O.D. (405 nm), mean of 3 assays", "setting": "[4]", "result": 3.64, "unit": "O.D."},
      {"measurement": "O.D. (405 nm), mean of 3 assays", "setting": "[5]", "result": 3.27, "unit": "O.D."},
      {"measurement": "O.D. (405 nm), mean of 3 assays", "setting": "[6]", "result": 3.37, "unit": "O.D."},
      {"measurement": "O.D. (405 nm), mean of 3 assays", "setting": "[7]", "result": 1.36, "unit": "O.D."},
      {"measurement": "O.D. (405 nm), mean of 3 assays", "setting": "[8]", "result": 1.32, "unit": "O.D."},
      {"measurement": "O.D. (405 nm), mean of 3 assays", "setting": "[9]", "result": 0.75, "unit": "O.D."},
      {"measurement": "O.D. (405 nm), mean of 3 assays", "setting": "[10]", "result": 0.63, "unit": "O.D."},
      {"measurement": "O.D. (405 nm)", "setting": "[11]", "result": 3.67, "unit": "O.D."},
      {"measurement": "O.D. (405 nm)", "setting": "[12]", "result": 3.36, "unit": "O.D."},
      {"measurement": "O.D. (405 nm)", "setting": "[13]", "result": 3.29, "unit": "O.D."},
      {"measurement": "O.D. (405 nm)", "setting": "[14]", "result": 3.37, "unit": "O.D."},
      {"measurement": "O.D. (405 nm)", "setting": "[15]", "result": 2.99, "unit": "O.D."},
      {"measurement": "O.D. (405 nm)", "setting": "[16]", "result": 4.04, "unit": "O.D."},
      {"measurement": "O.D. (405 nm)", "setting": "[17]", "result": 3.89, "unit": "O.D."},
      {"measurement": "O.D. (405 nm)", "setting": "[18]", "result": 3.83, "unit": "O.D."},
      {"measurement": "O.D. (405 nm)", "setting": "[19]", "result": 3.52, "unit": "O.D."},
      {"measurement": "O.D. (405 nm)", "setting": "[20]", "result": 3.64, "unit": "O.D."},
      {"measurement": "O.D. (405 nm)", "setting": "[21]", "result": 3.23, "unit": "O.D."},
      {"measurement": "O.D. (405 nm)", "setting": "[22]", "result": 1.78, "unit": "O.D."},
      {"measurement": "O.D. (405 nm)", "setting": "[23]", "result": 1.78, "unit": "O.D."},
      {"measurement": "O.D. (405 nm)", "setting": "[24]", "result": 1.18, "unit": "O.D."},
      {"measurement": "O.D. (405 nm)", "setting": "[25]", "result": 1.27, "unit": "O.D."},
      {"measurement": "O.D. (405 nm)", "setting": "[26]", "result": 0.94, "unit": "O.D."},
      {"measurement": "O.D. (405 nm)", "setting": "[27]", "result": 0.88, "unit": "O.D."},
      {"measurement": "O.D. (405 nm)", "setting": "[28]", "result": 2.23, "unit": "O.D."},
      {"measurement": "O.D. (405 nm)", "setting": "[29]", "result": 2.07, "unit": "O.D."},
      {"measurement": "O.D. (405 nm)", "setting": "[30]", "result": 1.08, "unit": "O.D."},
      {"measurement": "O.D. (405 nm)", "setting": "[31]", "result": 0.95, "unit": "O.D."},
      {"measurement": "O.D. (405 nm)", "setting": "[32]", "result": 0.86, "unit": "O.D."},
      {"measurement": "O.D. (405 nm)", "setting": "[33]", "result": 0.66, "unit": "O.D."}
    ]}
  ]
}
